Data as given in patent US7018791B1, “Binding complexes” (Institute of Cancer Research: Royal Cancer Hospital, priority 1997, dated 2006).
Each block holds one molecule with its values, some of them ahead of it. * marks the point of attachment. Biotin = O=C1N[C@H]2[C@H](CS[C@H]2CCCCC(=O)*)N1

How the values were obtained:
CCT [1] = tested on: T1, CCT; assay: Interaction of soluble biotinylated peptides with CCT (native PAGE, streptavidin/Neutravidin-HRP blot); type: binding, mouse
T1 construct: Take 20S mouse testis sucrose gradient fractions enriched in CCT; from tissue; host or cells: mouse testis, 20S sucrose gradient fractions

[2] = target: T2, mouse CCTα subunit (wildtype) (mouse, UniProt P11983 1-556); assay: superimposable bands, 6% non-denaturing PAGE Western blot of mouse testis sucrose fractions 13 and 14, subunit-specific antibodies
T2 construct: in the 23C experiment translated in vitro and incorporated into rabbit CCT; also called CCTa; CCTA

CCT [3] = assay: In vitro translation in rabbit reticulocyte lysate, interaction with CCT on native PAGE; type: binding; conditions: kinetics different from folding substrates actin or tubulins
Protocol: Time courses of interactions of cyclins with CCT were analysed on 6% native polyacrylamide gels (Liou & Willison,EMBO J. 16, 4311–4316, 1997). At the indicated times, 5 μl aliquots of the lysate reactions were added to 7 μl of […] EDTA (ph 8.0) and 4 μl of 4× gel loading buffer and placed on ice. The lanes 1–6 show CCT a at t=0, 5, 10, 20, 30, 60 minutes. Lanes 7–12 show pBSK CY1 1 (mouse D1) at t=0, 5, 10, 20, 30, 60 minutes.
Upon in vitro translation of actin mRNA in rabbit reticulocyte lysate, several truncated forms of ^35S-actin are captured by and accumulate on CCT. This is also the case for α-tubulin (Liou, K. F., et al, Biological Chem. Hoppe-Seler 379, 311–319, 1998). […] Thus, the actin is fragments are not ribosome released nascent chains, but are the consequence of initiation of translation at internal methionine residues in actin, and a comparison of the experimentally determined molecular weights of the truncated forms with the sequential occurrence of the methionines in mouse β-actin supports this interpretation. […] Therefore, no fragments smaller than 29 kDa are produced by internal initiation in the IVT reaction.
The present inventors made fusion proteins which linked β-Actin Site I (residues 31–70) or Site II residues 178–262; 6 of the peptides (Table 2) are located in this segment) containing fragments to the C-terminus of Ha-Ras (residues 1–166). […]

mouse CCTγ subunit = target: T3, mouse CCTγ subunit (mouse, UniProt P80318 1-545); assay: superimposable bands, 6% non-denaturing PAGE Western blot of sucrose fractions 13 and 14; footnote: not very clear in mouse testis but substantiated in Human 293 cells
T3 construct: Endogenous subunit in mouse testis sucrose fractions
T3 sequence (looked up): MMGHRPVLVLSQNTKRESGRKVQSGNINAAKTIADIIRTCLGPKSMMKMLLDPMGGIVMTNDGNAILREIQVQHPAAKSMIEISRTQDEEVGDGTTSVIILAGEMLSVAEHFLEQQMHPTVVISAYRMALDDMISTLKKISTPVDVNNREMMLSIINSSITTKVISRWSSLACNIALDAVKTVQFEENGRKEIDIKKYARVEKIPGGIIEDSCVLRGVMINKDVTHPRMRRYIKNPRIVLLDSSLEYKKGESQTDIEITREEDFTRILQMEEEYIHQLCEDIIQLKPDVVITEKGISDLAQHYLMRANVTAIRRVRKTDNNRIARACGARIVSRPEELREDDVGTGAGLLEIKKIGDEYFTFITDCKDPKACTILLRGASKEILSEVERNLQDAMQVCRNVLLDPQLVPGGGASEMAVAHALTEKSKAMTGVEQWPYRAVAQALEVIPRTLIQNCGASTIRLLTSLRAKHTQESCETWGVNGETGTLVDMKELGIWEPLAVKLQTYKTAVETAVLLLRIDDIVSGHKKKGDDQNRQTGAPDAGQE

[4] = target: T4, human CCTγ subunit (human 293 cells) (human, UniProt P49368 1-545); assay: superimposable bands, non-denaturing PAGE Western blot of sucrose fractions 13 and 14 of human 293 cells
T4 sequence (looked up): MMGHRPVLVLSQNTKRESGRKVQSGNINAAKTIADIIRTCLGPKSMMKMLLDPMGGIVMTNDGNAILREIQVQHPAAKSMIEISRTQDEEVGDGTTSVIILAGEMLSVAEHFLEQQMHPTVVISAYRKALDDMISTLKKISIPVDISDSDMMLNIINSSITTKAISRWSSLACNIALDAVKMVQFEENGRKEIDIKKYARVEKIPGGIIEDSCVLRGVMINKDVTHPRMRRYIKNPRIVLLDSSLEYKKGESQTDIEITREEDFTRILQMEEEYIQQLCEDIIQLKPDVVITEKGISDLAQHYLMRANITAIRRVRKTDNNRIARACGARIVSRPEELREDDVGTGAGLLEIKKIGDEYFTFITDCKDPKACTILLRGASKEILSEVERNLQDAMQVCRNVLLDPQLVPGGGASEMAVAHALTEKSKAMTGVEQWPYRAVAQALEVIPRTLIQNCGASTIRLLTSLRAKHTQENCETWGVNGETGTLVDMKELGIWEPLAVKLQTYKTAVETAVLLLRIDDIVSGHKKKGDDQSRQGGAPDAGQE

[5] = target: T5, CCT (chaperonin containing TCP-1) complex from mouse testis (mouse, UniProt P11983 1-556; P80314 2-535; P80318 1-545; P80315 1-539; P80316 2-541; P80317 …); assay: biotinylated peptide with CCT in solution, 6% native PAGE, blot probed with streptavidin/Neutravidin-HRP
T5 construct: Hetero-oligomer: eight different subunits in each of two rings (double toroid, about 920 kDa), enriched from mouse testis 20S sucrose gradient fractions; Testis also holds CCTζ2; also called CCT complex; intact CCT

Molecule: biotin-SGSG-GRPRHQGVMVGMGQK [peptide 8]
binding of peptide to CCT in free solution (co-migration with CCT complex) (CCT [1]; biotinylated peptide, non denaturing gel): co-migrate with the CCT complex

Molecule: biotin-SGSG-AAAAAQGVMVGMGQK [peptide 8.6]
effect of alanine substitution in GRPRH core sequence on binding to CCT (CCT [1]; free solution assay, derivatives of peptide 8): abrogation of binding to CCT

B1: mouse CCTη subunit (other, UniProt P80313 1-544, looked up)
chain: MMPTPVILLKEGTDSSQGIPQLVSNISACQVIAEAVRTTLGPRGMDKLIVDGRGKATISNDGATILKLLDVVHPAAKTLVDIAKSQDAEVGDGTTSVTLLAAEFLKQVKPYVEEGLHPQIIIRAFRTATQLAVNKIKEIAVTVKKQDKVEQRKMLEKCAMTALSSKLISQQKVFFAKMVVDAVMMLDELLQLKMIGIKKVQGGALEESQLVAGVAFKKTFSYAGFEMQPKKYKNPKIALLNVELELKAEKDNAEIRVHTVEDYQAIVDAEWNILYDKLEKIHQSGAKVILSKLPIGDVATQYFADRDMFCAGRVPEEDLKRTMMACGGSIQTSVNALVPDVLGHCQVFEETQIGGERYNFFTGCPKAKTCTIILRGGAEQFMEETERSLHDAIMIVRRAIKNDSVVAGGGAIEMELSKYLRDYSRTIPGKQQLLIGAYAKALEIIPRQLCDNAGFDATNILNKLRARHAQGGMWYGVDINNENIADNFQAFVWEPAMVRINALTAASEAACLIVSVDETIKNPRSTVDPPAPSAGRGRGQARFH
notes: Endogenous subunit in mouse testis sucrose fractions
binding result [2]: binds

B2: Cyclin D2: cyclin D2, CCT binding partner (protein, UniProt P30279 1-289, looked up)
G1/S-specific cyclin-D2: MELLCHEVDPVRRAVRDRNLLRDDRVLQNLLTIEERYLPQCSYFKCVQKDIQPYMRRMVATWMLEVCEEQKCEEEVFPLAMNYLDRFLAGVPTPKSHLQLLGAVCMFLASKLKETSPLTAEKLCIYTDNSIKPQELLEWELVVLGKLKWNLAAVTPHDFIEHILRKLPQQREKLSLIRKHAQTFIALCATDFKFAMYPPSMIATGSVGAAICGLQQDEEVSSLTCDALTELLAKITNTDVDCLKACQEQIEAVLLNSLQQYRQDQRDGSKSEDELDQASTPTDVRDIDL
binding to CCT (binding partner) (CCT [3]): specific binding partners for CCT

B4: Cyclin D1: mouse cyclin D1 translated in rabbit reticulocyte lysate (protein)
chain: MEHQLLCCEVETIRRAYPDTNLLNDRVLRAMLKTEETCAPSVSYFKCVQKEIVPSMRKIVATWMLEVCEEQKCEEEVFPLAMNYLDRFLSLEPLKKSRLQLLGATCMFVASKMKETIPLTAEKLCIYTDNSIRPEELLQMELLLVNKLKWNLAAMTPHDFIEHFLSKMPEADENKQTIRKHAQTFVALCATDVKFISNPPSMVAAGSVVAAMQGLNLGSPNNFLSCYRTTHFLSRVIKCDPDCLRACQEQIEALLESSLRQAQQNVDPKATEEEGEVEEEAGLACTPTDVRDVDI
binding to CCT (binding partner) (CCT [3]): specific binding partners for CCT

B7: peptide 8.6, biotin-SGSG-AAAAAQGVMVGMGQK (peptide)
peptide: Biotin-SGSGAAAAAQGVMVGMGQK-NH2
SMILES: CSCC[C@H](NC(=O)CNC(=O)[C@@H](NC(=O)[C@H](CCSC)NC(=O)[C@@H](NC(=O)CNC(=O)[C@H](CCC(N)=O)NC(=O)[C@H](C)NC(=O)[C@H](C)NC(=O)[C@H](C)NC(=O)[C@H](C)NC(=O)[C@H](C)NC(=O)CNC(=O)[C@H](CO)NC(=O)CNC(=O)[C@H](CO)NC(=O)CCCC[C@@H]1SC[C@@H]2NC(=O)N[C@@H]21)C(C)C)C(C)C)C(=O)NCC(=O)N[C@@H](CCC(N)=O)C(=O)N[C@@H](CCCCN)C(N)=O
notes: All five core residues replaced by alanine
binding result [5]: no binding (tested: peptide 13.3 µM or 1.33 µM, CCT 70 nM)

Results, then the molecule that gave them:

binding result [2]: binds
B3: mouse CCTε subunit (other, UniProt P80316 2-541, looked up)
chain: ASVGTLAFDEYGRPFLIIKDQDRKSRLMGLEALKSHIMAAKAVANTMRTSLGPNGLDKMMVDKDGDVTITNDGATILSMMDVDHQIAKLMVELSKSQDDEIGDGTTGVVVLAGALLEEAEQLLDRGIHPIRIADGYEQAARIAIQHLDKISDKVLVDINNPEPLIQTAKTTLGSKVINSCHRQMAEIAVNAVLTVADMERRDVDFELIKVEGKVGGRLEDTKLIKGVIVDKDFSHPQMPKKVVDAKIAILTCPFEPPKPKTKHKLDVMSVEDYKALQKYEKEKFEEMIKQIKETGANLAICQWGFDDEANHLLLQNGLPAVRWVGGPEIELIAIATGGRIVPRFSELTSEKLGFAGVVQEISFGTTKDKMLVIEKCKNSRAVTIFIRGGNKMIIEEAKRSLHDALCVIRNLIRDNRVVYGGGAAEISCALAVSQEADKCPTLEQYAMRAFADALEVIPMALSENSGMNPIQTMTEVRARQVKESNPALGIDCLHKGSNDMQYQHVIETLIGKKQQISLATQMVRMILKIDDIRKPGESEE
notes: as for B1

binding result (mouse CCTγ subunit): binds
B5: mouse CCTβ subunit (other, UniProt P80314 2-535, looked up)
chain: ASLSLAPVNIFKAGADEERAETARLSSFIGAIAIGDLVKSTLGPKGMDKILLSSGRDAALMVTNDGATILKNIGVDNPAAKVLVDMSRVQDDEVGDGTTSVTVLAAELLREAESLIAKKIHPQTIISGWREATKAAREALLSSAVDHGSDEARFWQDLMNIAGTTLSSKLLTHHKDHFTKLAVEAVLRLKGSGNLEAIHVIKKLGGSLADSYLDEGFLLDKKIGVNQPKRIENAKILIANTGMDTDKIKIFGSRVRVDSTAKVAEIEHAEKEKMKEKVERILKHGINCFINRQLIYNYPEQLFGAAGVMAIEHADFAGVERLALVTGGEIASTFDHPELVKLGSCKLIEEVMIGEDKLIHFSGVALGEACTIVLRGATQQILDEAERSLHDALCVLAQTVKDPRTVYGGGCSEMLMAHAVTQLANRTPGKEAVAMESFAKALRMLPTIIADNAGYDSADLVAQLRAAHSEGHITAGLDMKEGTIGDMAVLGITESFQVKRQVLLSAAEAAEVILRVDNIIKAAPRKRVPDHHPC
notes: as for B1

binding result [4]: binds
B6: human CCTβ subunit (human 293 cells) (other, UniProt P78371 2-535, looked up)
chain: ASLSLAPVNIFKAGADEERAETARLTSFIGAIAIGDLVKSTLGPKGMDKILLSSGRDASLMVTNDGATILKNIGVDNPAAKVLVDMSRVQDDEVGDGTTSVTVLAAELLREAESLIAKKIHPQTIIAGWREATKAAREALLSSAVDHGSDEVKFRQDLMNIAGTTLSSKLLTHHKDHFTKLAVEAVLRLKGSGNLEAIHIIKKLGGSLADSYLDEGFLLDKKIGVNQPKRIENAKILIANTGMDTDKIKIFGSRVRVDSTAKVAEIEHAEKEKMKEKVERILKHGINCFINRQLIYNYPEQLFGAAGVMAIEHADFAGVERLALVTGGEIASTFDHPELVKLGSCKLIEEVMIGEDKLIHFSGVALGEACTIVLRGATQQILDEAERSLHDALCVLAQTVKDSRTVYGGGCSEMLMAHAVTQLANRTPGKEAVAMESYAKALRMLPTIIADNAGYDSADLVAQLRAAHSEGNTTAGLDMREGTIGDMAILGITESFQVKRQVLLSAAEAAEVILRVDNIIKAAPRKRVPDHHPC
